The results in this text go back to publication PMC10179162.

The target of test [1] is chimeric HPV16 L1:P18I10 capsid protein (293F-derived, chromatography-purified L1:P18I10 VLP) (human papillomavirus type 16 | HIV-1) (UniProt P03101). As to the kind of experiment: non-reducing SDS-PAGE (disulfide cross-linking); purified VLPs mixed with 2x Laemmli sample buffer with or without 20 mM DTT, 15 min at room temperature; 8-16% gel; blot probed with anti-HPV16 L1 mAb CAMVIR-1.

The target in test [2] is chimeric HPV16 L1:P18I10 capsid protein (BEVS/IC-derived, ultracentrifugation-purified L1:P18I10 VLP) (human papillomavirus type 16 | HIV-1) (UniProt P03101). The test is described as above.

In test [1], “chimeric HPV16 L1:P18I10 capsid protein (293F-derived, chromatography-purified L1:P18I10 VLP) (from UniProt P03101 1-129; P03101 137-505)” registered a percent disulfide-bonded into oligomers (without DTT) above 99% and a percent monomeric (with DTT) of 80%.
For the substance “chimeric HPV16 L1:P18I10 capsid protein (BEVS/IC-derived, ultracentrifugation-purified L1:P18I10 VLP) (from UniProt P03101 1-129; P03101 137-505)”, in test [2], the percent disulfide-bonded into oligomers (without DTT) was above 99% and the percent monomeric (with DTT) came out at 50%.
